Results: paper PMC7223222

Target: pmE2:pFc2 fusion protein (transmembrane domain-deleted classical swine fever virus envelope glycopro (classical swine fever virus))
Assay: SEC

Work on “pmE2:pFc2 fusion protein (transmembrane domain-deleted classical swine fever virus envelope glycopro (Fc fusion)” yielded a stoichiometry N of 3.
